Source: patent publication US20200282100A1, “Hemostatic Dressings with Self-Assembling Peptide Hydrogels” (3-D Matrix, Ltd., priority 2016, published 2020)

Test: Congo Red assay of gel formation of peptide solutions in PBS buffer (pH 7.4) with a hemostatic porous dressing
Type: physicochemical
Settings: PBS pH 7.4, compared with pure RADA16 2.5%
Protocol: A Congo Red assay was performed to assess gel formation of peptide solutions in a PBS buffer solution (pH 7.4) when used with a hemostatic porous dressing. RADA16 2.5% (PuraMatrix®) was plated on a glass slide and also on a hemostatic porous dressing on a glass slide. PuraMatrix® was spread on the surface of the hemostatic porous dressing using a stick. After 30 seconds, 1% Congo Red solution was added around and on top of the gel aliquots and then the excess Congo Red solution was wiped off prior to examination. RADA16 2.5% was also plated on an absorbable gelatin sponge (Surgifoam®, Ethicon) and on an absorbable oxidized regenerated cellulose woven dressing (Surgicel®, Ethicon). Visualization of gel formation determined the success or failure of gelation. […] Specifically, (1) and (2) show pure RADA16 2.5% (PuraMatrix®). In (3), (4), and (5), RADA16 2.5% is shown with absorbable gelatin sponge (Surgifoam®, Ethicon). In (6), (7), and (8), RADA16 2.5% is shown with absorbable oxidized regenerated cellulose woven dressing (Surgicel®, Ethicon).
A Congo Red assay was performed to assess gel formation of peptide solutions in a PBS buffer solution (pH 7.4) when used with a hemostatic porous dressing.
IEIK13 1.3% (pH 3.0) was plated on a glass slide and on a hemostatic porous dressing on a glass slide. […] Visualization of gel formation determined the success or failure of gelation. […]

RADARADARADARADA [RADA16 2.5%]
gel formation (visualization) (on absorbable gelatin sponge (Surgifoam, Ethicon)): gelled
gel formation (visualization) (on absorbable oxidized regenerated cellulose woven dressing (Surgicel, Ethicon)): gelled
